For data set [1], the target named is T1, ESE-1 (ELF3) (Homo sapiens, UniProt P78545 P78545:1-371).
T1 sequence: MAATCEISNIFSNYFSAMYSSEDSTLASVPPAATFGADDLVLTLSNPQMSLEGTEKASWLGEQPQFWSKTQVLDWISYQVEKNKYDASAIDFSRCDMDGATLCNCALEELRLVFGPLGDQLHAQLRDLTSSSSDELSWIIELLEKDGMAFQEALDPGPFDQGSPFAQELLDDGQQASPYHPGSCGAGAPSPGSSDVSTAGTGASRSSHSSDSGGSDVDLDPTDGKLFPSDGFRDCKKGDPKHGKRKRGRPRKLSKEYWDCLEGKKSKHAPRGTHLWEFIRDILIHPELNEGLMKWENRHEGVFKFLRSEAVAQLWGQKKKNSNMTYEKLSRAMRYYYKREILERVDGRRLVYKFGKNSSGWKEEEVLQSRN
Put plainly: cell_activity.

In data set [2] the target is T1, ESE-1 (ELF3). The data set is described as follows: EMSA; strong specific complex; data not shown. The settings on record: tags: pCI/ESE-1, TNT rabbit reticulocyte lysate; label: 32P. (In general: A gel shift assay detects complexes by their altered migration in electrophoresis.)
Data set [3] deals with T1, ESE-1 (ELF3). The data set is described as follows: EMSA. The settings on record: tags: pCI/ESE-1, TNT rabbit reticulocyte lysate; label: 32P. How it is done:
Having identified putative targets for ESE- 1 we were also interested to determine whether ESE- 1 could specifically bind to Ets sites within the NOS2 promoter. An Ets binding site was identified which is highly homologous to the Ets consensus binding site for ESE- 1 (Oettgen, P., et al., 1999, J Biol Chem 274:29439-52). […] As is shown in FIG. 6, ESE- 1 binds equally well to both Ets sites.
In vitro transcription-translation was performed in TNT rabbit reticulocyte lysate (Promega) using the pCI/ESE- 1 vector as described (Oettgen, P., et al. et al. 1997, Mol Cell Biol 17:4419-33). EMSAs and supershift assays were performed using 2 μl of in vitro translation product or 3 μl of whole cell extract and (³²P)-labeled double stranded oligonucleotide probes in the presence or absence of competitor oligonucleotides (1, 10 or 100 ng) or antibodies as described (Akbarali, Y., et al. 1996. J Biol Chem 271:26007-12). Whole cell extracts were made from U- 138 Mg cells after incubation with IL-1β for 0, 3, and 8 hours using as lysis buffer 1% Triton X- 100, 25 mM glycylglycine pH7.8, 15 mM MgSO₄, 4 mM EGTA, 1 mM dithiothreitol, phenylmethylsulfonyl fluoride, Aprotinin, and Pepstatin. All antibodies for super-shift assays (2 μl per assay) were obtained from Santa-Cruz Technologies (CA) (Oettgen, P., et al. 1996, Mol Cell Biol 16:5091-106).

In the case of NOS2 promoter -234/+31, the activity with ESE-1 (ELF3) [1] (luciferase transactivation, RAW cells, promoter length in Example 1M not stated) turned out to be 12 fold.

COX-2 promoter -170/+103: in the data set with ESE-1 (ELF3) [1] (luciferase, RAW 264.7), the activity is over 10 fold.

B1: COX-2 promoter Ets site 1 (dsDNA)
DNA 1: GCACGTCCAGGAACTCCTCAGC
DNA 2: GCTGAGGAGTTCCTGGACGTGC
As to B1, the binding result with ESE-1 (ELF3) [2] is given as “binds”.

B2: murine PSP promoter Ets site (dsDNA)
DNA 1: TCGACGAACATCCAGGAAATAGGGCTC
DNA 2: TCGAGAGCCCTATTTCCTGGATGTTCG
As to B2, in the data set with ESE-1 (ELF3) [3], the binding result is “binds”.

B3: COX-2 promoter Ets site 3 (dsDNA)
DNA 1: CGAAAAGGCGGAAAGAAACAGT
DNA 2: ACTGTTTCTTTCCGCCTTTTCG
For the molecule B3, the binding result in the data set with ESE-1 (ELF3) [2] was “binds”.
